The results in this text go back to publication PMC8775132, “Complement-Mediated Selective Tumor Cell Lysis Enabled by Bi-Functional RNA Aptamers”.

Data set [1] concerns the target T1, complement iC3b (human, UniProt P01024;P01024;P01024 23-667;749-1303;1321-1663). Briefly: filter binding; 20 mM HEPES pH 7.4, 150 mM NaCl, 10 mM MgCl2, BSA and yeast RNA 1 ug/20 uL each, 45 min at 37 C. The settings on record: protein: native; copies: 1;1;1; label: 32P.
In a further data set the target is complement C3 (human, UniProt P01024;P01024 23-667;672-1663). The data set is described as above. Conditions: protein: native; copies: 1;1; label: 32P.
In another data set the target is complement C3b (human, UniProt P01024;P01024 23-667;749-1663). Briefly: EMSA; 250 nM protein; 20 mM HEPES pH 7.4, 150 mM NaCl, 10 mM MgCl2, BSA and yeast RNA 1 ug/20 uL each, 45 min at 37 C. Conditions: protein: native; copies: 1;1; label: 32P. Background: In EMSA bound probe runs differently from free probe, usually more slowly.
Data set [2] concerns the target T1, complement iC3b. The description is as above. The settings on record: protein: native; copies: 1;1;1; label: 32P.

T1 sequence (P01024 23-667, chain 1 of 3): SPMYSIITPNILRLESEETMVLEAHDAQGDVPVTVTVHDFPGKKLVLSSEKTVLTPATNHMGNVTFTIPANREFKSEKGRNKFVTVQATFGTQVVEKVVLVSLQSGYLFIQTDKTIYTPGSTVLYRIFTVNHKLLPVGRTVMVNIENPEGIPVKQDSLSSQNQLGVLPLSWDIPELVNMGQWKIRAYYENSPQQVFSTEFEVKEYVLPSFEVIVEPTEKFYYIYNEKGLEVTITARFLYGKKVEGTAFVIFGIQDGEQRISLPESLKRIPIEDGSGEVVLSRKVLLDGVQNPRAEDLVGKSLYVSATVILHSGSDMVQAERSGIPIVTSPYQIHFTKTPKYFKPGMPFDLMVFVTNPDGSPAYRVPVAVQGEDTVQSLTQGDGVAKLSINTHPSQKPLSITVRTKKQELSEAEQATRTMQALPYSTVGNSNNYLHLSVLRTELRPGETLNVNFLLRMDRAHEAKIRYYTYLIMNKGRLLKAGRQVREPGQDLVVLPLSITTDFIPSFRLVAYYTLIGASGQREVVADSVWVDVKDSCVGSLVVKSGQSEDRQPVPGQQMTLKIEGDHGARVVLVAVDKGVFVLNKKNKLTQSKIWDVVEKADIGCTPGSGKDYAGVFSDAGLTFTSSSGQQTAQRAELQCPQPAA
T1 sequence (P01024 749-1303, chain 2 of 3): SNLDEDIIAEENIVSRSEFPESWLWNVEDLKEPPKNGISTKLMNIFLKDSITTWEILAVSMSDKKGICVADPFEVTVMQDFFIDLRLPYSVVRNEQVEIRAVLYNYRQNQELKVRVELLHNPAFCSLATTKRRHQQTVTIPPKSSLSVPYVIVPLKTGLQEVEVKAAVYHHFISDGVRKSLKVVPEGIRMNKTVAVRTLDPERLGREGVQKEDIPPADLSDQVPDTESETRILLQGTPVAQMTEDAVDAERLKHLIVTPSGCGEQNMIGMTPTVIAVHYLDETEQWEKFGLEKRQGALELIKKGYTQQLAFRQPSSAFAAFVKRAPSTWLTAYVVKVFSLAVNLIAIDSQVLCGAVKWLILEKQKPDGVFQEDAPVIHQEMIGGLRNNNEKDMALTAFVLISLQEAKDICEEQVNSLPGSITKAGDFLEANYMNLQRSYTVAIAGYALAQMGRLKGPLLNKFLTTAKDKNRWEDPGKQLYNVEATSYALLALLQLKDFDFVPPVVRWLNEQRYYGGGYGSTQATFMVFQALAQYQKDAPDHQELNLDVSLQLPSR
T1 sequence (P01024 1321-1663, chain 3 of 3): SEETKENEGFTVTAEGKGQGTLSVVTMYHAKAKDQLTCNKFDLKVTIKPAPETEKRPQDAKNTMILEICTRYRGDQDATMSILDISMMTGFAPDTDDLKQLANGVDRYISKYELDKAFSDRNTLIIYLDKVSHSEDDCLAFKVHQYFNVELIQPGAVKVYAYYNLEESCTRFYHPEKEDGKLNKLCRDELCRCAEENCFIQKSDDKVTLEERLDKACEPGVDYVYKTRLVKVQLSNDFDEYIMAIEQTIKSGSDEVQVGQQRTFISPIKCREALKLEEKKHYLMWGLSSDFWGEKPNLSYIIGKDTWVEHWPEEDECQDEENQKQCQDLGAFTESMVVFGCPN
Sequence of complement C3b (P01024 23-667, chain 1 of 2): as the sequence (P01024 23-667, chain 1 of 3) above
Sequence of complement C3b (P01024 749-1663, chain 2 of 2): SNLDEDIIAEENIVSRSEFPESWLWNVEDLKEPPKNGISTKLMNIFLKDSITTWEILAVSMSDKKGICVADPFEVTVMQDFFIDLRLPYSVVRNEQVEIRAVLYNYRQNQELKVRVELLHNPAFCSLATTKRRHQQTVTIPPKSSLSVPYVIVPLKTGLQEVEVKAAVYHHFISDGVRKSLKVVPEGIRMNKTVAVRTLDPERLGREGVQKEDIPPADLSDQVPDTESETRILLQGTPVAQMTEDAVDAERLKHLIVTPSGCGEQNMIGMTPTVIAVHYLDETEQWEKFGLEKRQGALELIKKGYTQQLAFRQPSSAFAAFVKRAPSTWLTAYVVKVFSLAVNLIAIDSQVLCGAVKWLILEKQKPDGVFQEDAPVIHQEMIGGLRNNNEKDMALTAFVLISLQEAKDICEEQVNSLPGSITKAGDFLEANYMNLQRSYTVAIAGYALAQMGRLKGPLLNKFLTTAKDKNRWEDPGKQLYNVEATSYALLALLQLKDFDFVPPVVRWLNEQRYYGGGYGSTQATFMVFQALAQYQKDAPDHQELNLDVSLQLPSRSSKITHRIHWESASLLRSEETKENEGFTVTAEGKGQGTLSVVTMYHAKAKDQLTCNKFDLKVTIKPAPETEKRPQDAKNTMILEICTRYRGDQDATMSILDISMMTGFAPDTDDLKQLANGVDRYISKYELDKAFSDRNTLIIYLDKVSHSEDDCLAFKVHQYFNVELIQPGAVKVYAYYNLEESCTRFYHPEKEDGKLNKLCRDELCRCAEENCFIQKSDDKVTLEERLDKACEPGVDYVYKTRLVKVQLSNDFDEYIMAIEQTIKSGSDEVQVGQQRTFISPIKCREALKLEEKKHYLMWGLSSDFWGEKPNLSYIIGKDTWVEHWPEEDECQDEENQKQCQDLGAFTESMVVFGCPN
Sequence of complement C3 (P01024 23-667, chain 1 of 2): as the sequence (P01024 23-667, chain 1 of 3) above
Sequence of complement C3 (P01024 672-1663, chain 2 of 2): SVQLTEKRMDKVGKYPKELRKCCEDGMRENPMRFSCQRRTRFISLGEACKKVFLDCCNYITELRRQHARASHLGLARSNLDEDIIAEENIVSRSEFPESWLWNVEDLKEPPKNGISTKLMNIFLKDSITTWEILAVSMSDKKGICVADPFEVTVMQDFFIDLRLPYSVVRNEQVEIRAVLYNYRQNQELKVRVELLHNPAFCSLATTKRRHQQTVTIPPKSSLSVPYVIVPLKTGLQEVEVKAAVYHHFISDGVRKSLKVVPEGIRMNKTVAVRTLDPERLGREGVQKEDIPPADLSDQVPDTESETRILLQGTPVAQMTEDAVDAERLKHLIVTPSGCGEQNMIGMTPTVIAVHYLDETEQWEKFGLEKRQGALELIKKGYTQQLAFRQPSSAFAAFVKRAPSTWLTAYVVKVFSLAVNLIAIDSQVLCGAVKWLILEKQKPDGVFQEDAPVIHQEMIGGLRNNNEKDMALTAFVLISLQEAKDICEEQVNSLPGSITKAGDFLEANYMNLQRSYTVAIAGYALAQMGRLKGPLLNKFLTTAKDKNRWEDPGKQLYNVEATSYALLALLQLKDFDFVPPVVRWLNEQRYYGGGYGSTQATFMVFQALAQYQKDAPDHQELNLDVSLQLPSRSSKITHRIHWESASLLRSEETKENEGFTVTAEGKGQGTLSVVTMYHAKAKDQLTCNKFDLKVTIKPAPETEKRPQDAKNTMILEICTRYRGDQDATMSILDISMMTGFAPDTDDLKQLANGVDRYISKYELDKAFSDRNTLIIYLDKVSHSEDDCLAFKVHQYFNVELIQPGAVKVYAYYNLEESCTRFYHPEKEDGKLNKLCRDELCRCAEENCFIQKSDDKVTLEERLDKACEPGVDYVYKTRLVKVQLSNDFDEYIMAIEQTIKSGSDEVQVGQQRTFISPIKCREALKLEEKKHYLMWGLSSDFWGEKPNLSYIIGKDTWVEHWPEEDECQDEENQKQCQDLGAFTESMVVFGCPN

B1: AptC3-III (structured_RNA)
RNA: GGGAGAAUUCAACUGCCAUCUACAGCCCCUCGGCCGCGUUCAGCGUCUAACCUUGGGCUGUAUAGAAAGGGUUUCCAGACUACAAGCUUCUGGACUCGGU
modifications: 2'-fluoro pyrimidines
On to B1, for which the Kd with complement iC3b [1] worked out at 14.5 nM; in the data set with complement C3, 17 nM.

B2: AptC3-IV (structured_RNA)
RNA: GGGAGAAUUCAACUGCCAUCUAGUUGCAAAAACAUGAGGAUAGCAAAGUACCAGUGCAACUAACAAGGAAAAGAAGACGGACUACAAGCUUCUGGACUCGGU
modifications: 2'-fluoro pyrimidines
Turning to B2, the binding result with complement C3b and with complement iC3b [2] was “binds” in each case.

B3: AptC3-VI (structured_RNA)
RNA: GGGAGAAUUCAACUGCCAUCUAACCACGUAGUAAUACGGUAUGAUCCAGUUUUAAUUCUAACCAGACUGUUCAGAUGACUACAAGCUUCUGGACUCGGU
modifications: 2'-fluoro pyrimidines
For B3, the binding result with complement C3b is “binds”.

In general, Kd refers to the constant that tells how readily two partners part at equilibrium. Low values mean higher affinity, high ones lower affinity.
